Data on 35 substances can be found in patent publication US20130011427A1 (priority 2009, published 2013).

The test system of assay [1] is HLA-A24/huCD8α (HLA-A*2402) Tg mice, CD4-depleted splenocytes. It is filed as cell-based, mouse.
Assay [2] relates to HLA-DR4/huCD4 (DRB1*0401) Tg mice, CD8-depleted splenocytes. It is filed as cell-based, mouse.
For assay [3], the target named is HLA-DR4 (HLA-DRA*0101 / HLA-DRB1*0401) (human). The experiment in a line: cell-based or functional assay.
Assay [4] deals with HLA-DR3 (HLA-DRA*0101 / HLA-DRB1*0301) (human). The assay is described as follows: cell-based or functional assay.
Assay [5] has as its target HLA-A2.1 (HHD monochain) (human; murine). The experiment in a line: cell-based or functional assay.
In assay [6] the target is HLA-DR2 (chimeric HLA-DRA1*0101/DRB1*1501 with I-E domains) (human; murine) (UniProt Q8BHN5). The assay is described as follows: cell-based or functional assay.
UniProt Q8BHN5, sequence (Q8BHN5 whole entry, stated change not applied): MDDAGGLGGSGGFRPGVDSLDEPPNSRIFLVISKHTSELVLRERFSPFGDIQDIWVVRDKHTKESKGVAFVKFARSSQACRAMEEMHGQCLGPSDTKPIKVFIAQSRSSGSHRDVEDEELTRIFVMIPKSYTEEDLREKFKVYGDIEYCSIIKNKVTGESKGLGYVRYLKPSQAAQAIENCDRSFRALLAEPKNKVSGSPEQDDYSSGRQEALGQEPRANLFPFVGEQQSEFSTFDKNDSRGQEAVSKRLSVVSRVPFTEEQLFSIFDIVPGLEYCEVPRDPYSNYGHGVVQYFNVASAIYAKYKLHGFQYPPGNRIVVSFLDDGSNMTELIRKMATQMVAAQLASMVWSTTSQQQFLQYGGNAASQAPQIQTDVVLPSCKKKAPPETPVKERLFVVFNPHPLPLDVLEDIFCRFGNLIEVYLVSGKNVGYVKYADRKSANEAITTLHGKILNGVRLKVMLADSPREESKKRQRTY
Assay [7] relates to HLA-DR3 (DRB1*0301) Tg mice, CD8-depleted splenocytes. It is filed as cell-based, mouse.
In assay [8] the test system is HLA-DR2 (DRB1*1501) Tg mice, CD8-depleted splenocytes. The class given is cell-based, mouse.
The test system of assay [9] is HLA-A2.1 (HLA-A*0201) Tg mice, CD4-depleted splenocytes. It is filed as cell-based, mouse.

GIDTNAYYVMTVGTKTFL [E 195-212]: in [1], the “T cell activation of HLA transgenic mice (SFC/10^6) IFN-γ ELISpot, A24” value (from here on “T cell activation of HLA transgenic mice … A24”) turned out to be 137 ± 70 SFC/10^6. The “T cell activation of HLA transgenic mice (SFC/10^6) IFN-γ ELISpot, DR4” value (from here on “T cell activation of HLA transgenic mice … DR4”) in [2] stood at 53 ± 16 SFC/10^6.
In turn, WNV NS3 581-597 peptide yielded an IFN-γ ELISpot (SFC/10^6) in assay [3] of 52 SFC/10^6.
As to WNV E 135-152 peptide, the IFN-γ ELISpot (SFC/10^6) in assay [4] turned out to be 86 SFC/10^6.
Consider WFMWLGARFLEFEALGFL [NS5 477-494], for which the “T cell activation of HLA transgenic mice … A24” value in assay [1] was 198 ± 60 SFC/10^6.
On to WNV NS3 474-489 peptide, for which the IFN-γ ELISpot (SFC/10^6) in assay [4] is 83 SFC/10^6; in [5], 92 SFC/10^6.
In assay [3], WNV NS1 327-343 peptide had an IFN-γ ELISpot (SFC/10^6) of 78 SFC/10^6.
WNV E 99-113 peptide displayed an IFN-γ ELISpot (SFC/10^6) in [4] of 79 SFC/10^6.
Still for that read-out and setting: next, WNV NS1 1-19 peptide: 572 SFC/10^6.
Substance WNV E 293-310 peptide had an IFN-γ ELISpot (SFC/10^6) in assay [3] of 47 SFC/10^6.
As to WNV prM 136-153 peptide, the IFN-γ ELISpot (SFC/10^6) in assay [4] was 78 SFC/10^6; in assay [3] it was 327 SFC/10^6; in assay [6], 235 SFC/10^6.
On to PYSGKREDIWCGSLIGTR [NS5 842-859], for which the “T cell activation of HLA transgenic mice … A24” value in assay [1] came out at 180 ± 66 SFC/10^6.
For GKLITDWCCRSCTLPPLR [NS1 305-322], the “T cell activation of HLA transgenic mice (SFC/10^6) IFN-γ ELISpot, DR3” value in assay [7] is reported as 557 ± 25 SFC/10^6. Besides, the “T cell activation of HLA transgenic mice … DR4” value in assay [2] is listed as 109 ± 22 SFC/10^6.
For the substance WNV NS3 37-54 peptide, the IFN-γ ELISpot (SFC/10^6) in assay [4] was 368 SFC/10^6; in [6], 149 SFC/10^6.
In turn, WNV E 384-399 peptide yielded an IFN-γ ELISpot (SFC/10^6) in [4] of 87 SFC/10^6.
For the substance LVAAVIGWMLGSNTMQRV [prM 136-153], the “T cell activation of HLA transgenic mice (SFC/10^6) IFN-γ ELISpot, DR3” value in assay [7] was determined as 78 ± 35 SFC/10^6. In addition, the “T cell activation of HLA transgenic mice … DR4” value in assay [2] stood at 327 ± 162 SFC/10^6. Moreover, the “T cell activation of HLA transgenic mice (SFC/10^6) IFN-γ ELISpot, DR2” value (“T cell activation of HLA transgenic mice … DR2” below) in assay [8] stood at 235 ± 9 SFC/10^6.
Consider WNV E 442-459 peptide, for which the IFN-γ ELISpot (SFC/10^6) in assay [4] amounted to 101 SFC/10^6; in [5] it was 442 SFC/10^6; in [6], 117 SFC/10^6.
Regarding VMTMGVFFLLMQRKGIGK [NS4a 62-79], in [1], the “T cell activation of HLA transgenic mice … A24” value turned out to be 117 ± 39 SFC/10^6.
As for WNV NS5 791-808 peptide, the IFN-γ ELISpot (SFC/10^6) in assay [3] worked out at 78 SFC/10^6.
Regarding WNV NS3 45-59 peptide, the IFN-γ ELISpot (SFC/10^6) in assay [4] stood at 63 SFC/10^6.
For NFQLMNDPGAPWKIWMLR [NS2b 84-101], in [1], the “T cell activation of HLA transgenic mice … A24” value is listed as 35 ± 1 SFC/10^6.
The substance WNV NS5 771-788 peptide came in with an IFN-γ ELISpot (SFC/10^6) in assay [3] of 135 SFC/10^6.
For WNV NS3 480-496 peptide, the IFN-γ ELISpot (SFC/10^6) in assay [4] was 121 SFC/10^6.
Turning to IALIALLSVMTMGVFFLL [NS4a 54-71], the “T cell activation of HLA transgenic mice … A24” value in assay [1] is on record as 70 ± 16 SFC/10^6.
As for PREHNGNEIVDVMCHATL [NS3 249-266], the “T cell activation of HLA transgenic mice (SFC/10^6) IFN-γ ELISpot, A2” value in [9] is 79 ± 27 SFC/10^6. Further, the “T cell activation of HLA transgenic mice … DR4” value in assay [2] was 46 ± 16 SFC/10^6. Besides, the “T cell activation of HLA transgenic mice … DR2” value in [8] was 139 ± 25 SFC/10^6.
WNV NS5 704-721 peptide returned an IFN-γ ELISpot (SFC/10^6) in assay [3] of 65 SFC/10^6.
Consider WNV NS3 500-517 peptide, for which the IFN-γ ELISpot (SFC/10^6) is 145 SFC/10^6 in [4] and 51 SFC/10^6 in assay [6].
In assay [4], WNV NS3 560-574 peptide had an IFN-γ ELISpot (SFC/10^6) of 225 SFC/10^6.
Take WNV NS2a 168-183 peptide: the results for the IFN-γ ELISpot (SFC/10^6) in assay [4] and in assay [6] were 231 SFC/10^6 and 556 SFC/10^6, respectively.
As to WNV NS4b 187-204 peptide, the IFN-γ ELISpot (SFC/10^6) in assay [3] stood at 83 SFC/10^6.
Turning to VLGVATFFCWMAEVPGTK [NS4a 86-103], in [1], the “T cell activation of HLA transgenic mice … A24” value is 65 ± 30 SFC/10^6. Further, the “T cell activation of HLA transgenic mice … DR4” value in [2] is 63 ± 1 SFC/10^6.
Take VFGGITYTDVLRYVILV [NS2a 45-61]: in [1], the “T cell activation of HLA transgenic mice … A24” value is on record as 243 ± 196 SFC/10^6. The “T cell activation of HLA transgenic mice … DR4” value in assay [2] is reported as 74 ± 11 SFC/10^6. Further, in [8], the “T cell activation of HLA transgenic mice … DR2” value was 307 ± 119 SFC/10^6.
For the substance WNV E 486-501 peptide, the IFN-γ ELISpot (SFC/10^6) was 244 SFC/10^6 in assay [4], 323 SFC/10^6 in assay [5] and 214 SFC/10^6 in assay [6].
Consider WNV E 62-77 peptide, for which the IFN-γ ELISpot (SFC/10^6) stood at 47 SFC/10^6 in assay [3] and 465 SFC/10^6 in assay [5].
As for WNV E 465-482 peptide, the results for the IFN-γ ELISpot (SFC/10^6) in assay [4], in [5] and in assay [6] were 330 SFC/10^6, 310 SFC/10^6 and 490 SFC/10^6, respectively.
In the case of WNV NS1 18-35 peptide, the IFN-γ ELISpot (SFC/10^6) in assay [4] was determined as 52 SFC/10^6.
